The results in this text go back to PMC4860041.

This data set addresses taxol-stabilized porcine microtubules (tubulin purified from porcine brain) (UniProt P02550). Description: co-sedimentation.

Chain of taxol-stabilized porcine microtubules (tubulin purified from porcine brain) (P02550 whole entry, looked up): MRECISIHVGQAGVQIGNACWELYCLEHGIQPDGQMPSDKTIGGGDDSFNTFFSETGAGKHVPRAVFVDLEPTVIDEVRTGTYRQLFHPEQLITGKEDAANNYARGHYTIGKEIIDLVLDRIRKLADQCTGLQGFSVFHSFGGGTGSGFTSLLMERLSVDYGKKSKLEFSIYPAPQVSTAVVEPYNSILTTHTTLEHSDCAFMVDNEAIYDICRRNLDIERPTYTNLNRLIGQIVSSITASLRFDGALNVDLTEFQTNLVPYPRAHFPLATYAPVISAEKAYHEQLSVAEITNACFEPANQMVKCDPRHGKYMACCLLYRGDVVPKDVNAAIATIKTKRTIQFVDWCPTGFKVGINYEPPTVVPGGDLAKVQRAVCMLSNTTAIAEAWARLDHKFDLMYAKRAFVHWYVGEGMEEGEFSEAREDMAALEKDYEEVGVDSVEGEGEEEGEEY

For the substance “recombinant full-length GFP-MNB kinase (Drosophila Minibrain, isoform E)”, the “apparent Km” value is reported as “a Km of 0.96 ± 0.10 μM (mean ± s.d.)”.
For “recombinant GFP-B>A-MNB kinase (Basic-to-Acidic mutant, KKKRR 118-122 to EEEDD)”, the “apparent Km” value is reported as “a Km of 4.46 ± 2.62 μM (mean ± s.d.)”.
